{"source": "patent US20230406961A1", "about": "(DEUTSCHES KREBSFORSCHUNGSZENTRUM STIFTUNG DES FFENTLICHEN …, published 2023)"}
{"target": "T1, CD28 expressed on human CD4+ and CD8+ T cells (human, UniProt P10747 19-220)", "T1 construct": "whole, on cells; also called T-cell-specific surface glycoprotein CD28", "experiment": "flow cytometry after incubation of PBMC with the constructs", "description": "Binding of the variants to normal human T cells was determined after incubation of PBMC with the respective constructs and subsequent analysis by flow cytometry"}
{"binder": "bispecific endoglinxCD28 antibody in the IgGsc format, BiCo variant Hc-L (bispecific antibody, Humanized endoglin IgG (K-ro22-2 / K-ro22-6), FcKO, with the CD28 scFv (9.3-8, Vh-Vl) fused to the C-terminus of the heavy chain without the long linker) heavy: QVQLVQSGAEVKKPGASVKVSCKASGYTFTSYWMHWVRQAPGQGLEWIGNIYPGSGSTFYDEKFKGRATLTVDTSISTAYMELSRLRSDDTAVYYCTRRNYVTGFDYWGQGTTVTVSSASTKGPSVFPLAPSSKSTSGGTAALGCLVKDYFPEPVTVSWNSGALTSGVHTFPAVLQSSGLYSLSSVVTVPSSSLGTQTYICNVNHKPSNTKVDKKVEPKSCDKTHTCPPCPAPPVAGPSVFLFPPKPKDTLMISRTPEVTCVVVGVSHEDPEVKFNWYVDGVEVHNAKTKPREEQYNSTYRVVSVLTVLHQDWLNGKEYKCKVSNKQLPSPIEKTISKAKGQPREPQVYTLPPSRDELTKNQVSLTCLVKGFYPSDIAVEWESNGQPENNYKTTPPVLDSDGSFFLYSKLTVDKSRWQQGNVFSCSVMHEALHNHYTQKSLSLSPGKASQVQLVESGGGVVQPGRSLRLSCAASGFSLSDYGVHWVRQAPGKGLEWLGVIWAGGGTNYNSALMSRKTISKDNSKNTVYLQMNSLRAEDTAVYYCARDKGYSYYYSMDYWGQGTTVTVSSGGGGSGGGGSGGGGSDIQMTQSPSTLSASVGDRVTIICRASESVEYYVTSLMQWYQQKPGKAPKLLIFAASNVESGVPSRFSGSGSGTEFTLTISSLQPDDFATYYCQQSRKVPYTFGQGTKLEIKR light: DIQLTQSPSFLSASVGDRVTITCKSSQSVLYSSNQKNYLAWYQQKPGKAPKLLIYWASTRESGVPSRFSGSGSGTEFTLTISSLQPEDFATYYCHQYLSSYTFGQGTKLEIKRTVAAPSVFIFPPSDEQLKSGTASVVCLLNNFYPREAKVQWKVDNALQSGNSQESVTEQDSKDSTYSLSSTLTLSKADYEKHKVYACEVTHQGLSSPVTKSFNRGEC", "binding result": "binds"}
{"binder": "bispecific endoglinxCD28 antibody in the IgGsc format, BiCo variant Lc-L (bispecific antibody, Humanized endoglin IgG, FcKO heavy chain, with the CD28 scFv (9.3-8, Vh-Vl) fused to the C-terminus of the kappa light chain without the long linker) heavy: QVQLVQSGAEVKKPGASVKVSCKASGYTFTSYWMHWVRQAPGQGLEWIGNIYPGSGSTFYDEKFKGRATLTVDTSISTAYMELSRLRSDDTAVYYCTRRNYVTGFDYWGQGTTVTVSSASTKGPSVFPLAPSSKSTSGGTAALGCLVKDYFPEPVTVSWNSGALTSGVHTFPAVLQSSGLYSLSSVVTVPSSSLGTQTYICNVNHKPSNTKVDKKVEPKSCDKTHTCPPCPAPPVAGPSVFLFPPKPKDTLMISRTPEVTCVVVGVSHEDPEVKFNWYVDGVEVHNAKTKPREEQYNSTYRVVSVLTVLHQDWLNGKEYKCKVSNKQLPSPIEKTISKAKGQPREPQVYTLPPSRDELTKNQVSLTCLVKGFYPSDIAVEWESNGQPENNYKTTPPVLDSDGSFFLYSKLTVDKSRWQQGNVFSCSVMHEALHNHYTQKSLSLSPGK light: DIQLTQSPSFLSASVGDRVTITCKSSQSVLYSSNQKNYLAWYQQKPGKAPKLLIYWASTRESGVPSRFSGSGSGTEFTLTISSLQPEDFATYYCHQYLSSYTFGQGTKLEIKRTVAAPSVFIFPPSDEQLKSGTASVVCLLNNFYPREAKVQWKVDNALQSGNSQESVTEQDSKDSTYSLSSTLTLSKADYEKHKVYACEVTHQGLSSPVTKSFNRGECASQVQLVESGGGVVQPGRSLRLSCAASGFSLSDYGVHWVRQAPGKGLEWLGVIWAGGGTNYNSALMSRKTISKDNSKNTVYLQMNSLRAEDTAVYYCARDKGYSYYYSMDYWGQGTTVTVSSGGGGSGGGGSGGGGSDIQMTQSPSTLSASVGDRVTIICRASESVEYYVTSLMQWYQQKPGKAPKLLIFAASNVESGVPSRFSGSGSGTEFTLTISSLQPDDFATYYCQQSRKVPYTFGQGTKLEIKR", "binding result": "binds"}
{"binder": "bispecific endoglinxCD28 antibody in the IgGsc format, BiCo variant Lc+L (bispecific antibody, Humanized endoglin IgG, FcKO heavy chain, with the CD28 scFv (9.3-8, Vh-Vl) fused to the C-terminus of the kappa light chain through a (GGGGS)3 linker; also called BiCo-1; Bico1) heavy: QVQLVQSGAEVKKPGASVKVSCKASGYTFTSYWMHWVRQAPGQGLEWIGNIYPGSGSTFYDEKFKGRATLTVDTSISTAYMELSRLRSDDTAVYYCTRRNYVTGFDYWGQGTTVTVSSASTKGPSVFPLAPSSKSTSGGTAALGCLVKDYFPEPVTVSWNSGALTSGVHTFPAVLQSSGLYSLSSVVTVPSSSLGTQTYICNVNHKPSNTKVDKKVEPKSCDKTHTCPPCPAPPVAGPSVFLFPPKPKDTLMISRTPEVTCVVVGVSHEDPEVKFNWYVDGVEVHNAKTKPREEQYNSTYRVVSVLTVLHQDWLNGKEYKCKVSNKQLPSPIEKTISKAKGQPREPQVYTLPPSRDELTKNQVSLTCLVKGFYPSDIAVEWESNGQPENNYKTTPPVLDSDGSFFLYSKLTVDKSRWQQGNVFSCSVMHEALHNHYTQKSLSLSPGK light: DIQLTQSPSFLSASVGDRVTITCKSSQSVLYSSNQKNYLAWYQQKPGKAPKLLIYWASTRESGVPSRFSGSGSGTEFTLTISSLQPEDFATYYCHQYLSSYTFGQGTKLEIKRTVAAPSVFIFPPSDEQLKSGTASVVCLLNNFYPREAKVQWKVDNALQSGNSQESVTEQDSKDSTYSLSSTLTLSKADYEKHKVYACEVTHQGLSSPVTKSFNRGECASGGGGSGGGGSGGGGSQVQLVESGGGVVQPGRSLRLSCAASGFSLSDYGVHWVRQAPGKGLEWLGVIWAGGGTNYNSALMSRKTISKDNSKNTVYLQMNSLRAEDTAVYYCARDKGYSYYYSMDYWGQGTTVTVSSGGGGSGGGGSGGGGSDIQMTQSPSTLSASVGDRVTIICRASESVEYYVTSLMQWYQQKPGKAPKLLIFAASNVESGVPSRFSGSGSGTEFTLTISSLQPDDFATYYCQQSRKVPYTFGQGTKLEIKR", "binding result": "binds"}
